Measured values reported in the supplement of paper PMC10126150.
± gives the standard deviation of the averaged measurements.

Tested on: ATP
Assay: switch fluorescence ratio, 500 uM ATP over buffer (Cy3 cluster intensity, sum of 5 cycles each) (fold (ratio)); higher = stronger signal-on switching upon ATP binding; sequences stand for … in TCGTCGGCAGCGTCAGATGTGTATAAGAGACAGTTTTTTTTTTTTTTTTTTTTTTTTT…TC
Settings: aptamer strand: ATP DNA aptamer (quencher-CACCTGGGGGAGTATTGCGGAGGAAGG + anchor), 100 nM annealed; ATP concentration: 500 uM
Method in brief: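 Clusters with intensities outside 100-1000 RFU were excluded. The remaining Cy3-labelled switching-strand clusters on a modified Illumina MiSeq flow-cell had been annealed to 100 nM quencher-labelled ATP aptamer and imaged in selection buffer, then after 15 min with 500 uM ATP at 22 °C, for five cycles separated by NaOH stripping and re-annealing. The fluorescence ratio, averaged per switch-domain sequence, is each cluster's summed target-cycle Cy3 intensity over its summed buffer-cycle Cy3 intensity.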
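Also: ATP exposure 15 min at 22 °C before imaging.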

Row | Sequence | switch fluorescence ratio
1 | TCGTTAATGT | 1.01 ± 0.035
2 | TCGTTCATGA | 1 ± 0.061
3 | TCGTTCGCGG | 1.12 ± 0.015
4 | TCGTTCGTCT | 0.973 ± 0.039
5 | TCGTTGACGT | 0.985 ± 0.04
6 | TCGTTGAGGC | 1.037 ± 0.0072
7 | TCGTTGTCGT | 1.04 ± 0.03
8 | TCGTTGTGAG | 1.004 ± 0.0089
9 | TCGTTGTGTA | 0.995 ± 0.03
10 | TCGTTTACTT | 1.06 ± 0.13
11 | TCGTTTAGGA | 0.974 ± 0.031
12 | TCGTTTAGGT | 0.977 ± 0.026
13 | TCGTTTATTA | 1 ± 0.089
14 | TCGTTTGATT | 1.01 ± 0.019
15 | TCGTTTGTTT | 0.982 ± 0.04
16 | TCGTTTTCGT | 0.9787 ± 0.009
17 | TCGTTTTTTT | 1.07 ± 0.13
18 | TCTAAAAAAG | 0.991 ± 0.028
19 | TCTAAAAGAT | 0.9771 ± 0.0026
20 | TCTAAAATG | 0.972 ± 0.029
21 | TCTAAATGGG | 1.029 ± 0.005
22 | TCTAACAGCC | 1.06 ± 0.028
23 | TCTAAGTTTT | 0.97 ± 0.01
24 | TCTAATACAG | 1.03 ± 0.032
25 | TCTAATATAC | 1.62 ± 0.028

Row | Sequence | switch fluorescence ratio
26 | TCTACGAGAG | 1.04 ± 0.048
27 | TCTAGATAAA | 1.04 ± 0.052
28 | TCTAGATGGT | 0.992 ± 0.025
29 | TCTAGGGGAG | 1.007 ± 0.0099
30 | TCTAGGGGGT | 0.9766 ± 0.0071
31 | TCTAGGTTTT | 1.005 ± 0.0047
32 | TCTAGTTAGG | 1.0115 ± 0.00098
33 | TCTATAGGGG | 1 ± 0.05
34 | TCTATATTAG | 1.02 ± 0.023
35 | TCTATGAAAA | 0.9818 ± 0.004
36 | TCTATGGGAC | 1.05 ± 0.013
37 | TCTATTCTCG | 1.013 ± 0.0056
38 | TCTATTTGGT | 0.9827 ± 0.0098
39 | TCTCACGATT | 1.022 ± 0.0061
40 | TCTCAGGGGA | 1.16 ± 0.11
41 | TCTCAGGTTG | 1.072 ± 0.0058
42 | TCTCCATTGC | 1.67 ± 0.035
43 | TCTCCGTCCT | 1.33 ± 0.025
44 | TCTCCTGGCT | 1.01 ± 0.014
45 | TCTCGGATGT | 0.99 ± 0.039
46 | TCTCGGGGTA | 0.979 ± 0.046
47 | TCTCGGGTCT | 1.02 ± 0.045
48 | TCTCGGGTTT | 0.9951 ± 0.0055
49 | TCTCGTAAAT | 1.034 ± 0.01
50 | TCTCGTACAG | 0.982 ± 0.024

Row | Sequence | switch fluorescence ratio
51 | TCTCTGAGGA | 0.985 ± 0.013
52 | TCTCTGGCAG | 1.17 ± 0.17
53 | TCTGAAACCG | 1.18 ± 0.12
54 | TCTGAAATGG | 1.04 ± 0.047
55 | TCTGAAGGGG | 1.12 ± 0.11
56 | TCTGAATGG | 1.01 ± 0.033
57 | TCTGACTTGA | 0.968 ± 0.018
58 | TCTGAGAGGG | 1 ± 0.017
59 | TCTGAGATAT | 0.9872 ± 0.0028
60 | TCTGAGCGAC | 1.57 ± 0.14
61 | TCTGAGGTTT | 1.04 ± 0.029
62 | TCTGCCTAGG | 1.13 ± 0.075
63 | TCTGCGTAAG | 1.003 ± 0.0065
64 | TCTGCGTCTG | 1.16 ± 0.2
65 | TCTGCTTATT | 0.979 ± 0.048
66 | TCTGGAGTTG | 1.01 ± 0.084
67 | TCTGGCAATG | 1.46 ± 0.061
68 | TCTGGCGGC | 0.981 ± 0.039
69 | TCTGGCTATT | 1.01 ± 0.02
70 | TCTGGCTTTT | 1.022 ± 0.0092
71 | TCTGGGAATT | 1.046 ± 0.0027
72 | TCTGGGCTTT | 1.07 ± 0.1
73 | TCTGGGGAGT | 1.01 ± 0.043
74 | TCTGGGGCGG | 1.04 ± 0.074
75 | TCTGGTGATA | 1.01 ± 0.017

Row | Sequence | switch fluorescence ratio
76 | TCTGGTGTTC | 1.045 ± 0.005
77 | TCTGGTTGGG | 1.04 ± 0.064
78 | TCTGGTTGTG | 1.01 ± 0.016
79 | TCTGTAATTT | 1.41 ± 0.59
80 | TCTGTAGGGG | 0.995 ± 0.013
81 | TCTGTGAGGT | 1.034 ± 0.0072
82 | TCTGTGTTTT | 1.04 ± 0.038
83 | TCTGTTAGTG | 1.03 ± 0.045
84 | TCTGTTGTTC | 0.993 ± 0.018
85 | TCTTAATTG | 0.98356 ± 0.00079
86 | TCTTAGAAC | 1.009 ± 0.0062
87 | TCTTAGCATT | 1.04 ± 0.077
88 | TCTTAGGGTT | 1.02 ± 0.017
89 | TCTTAGTTCG | 1.008 ± 0.01
90 | TCTTATAGGG | 1 ± 0.042
91 | TCTTATGGCC | 0.975 ± 0.018
92 | TCTTATTCTG | 1.044 ± 0.0063
93 | TCTTCGGGAA | 1.09 ± 0.06
94 | TCTTCTACCT | 1.2 ± 0.022
95 | TCTTCTAGCT | 1.05 ± 0.019
96 | TCTTGAAGGT | 0.985 ± 0.0053
97 | TCTTGCGTCG | 0.976 ± 0.023
98 | TCTTGGATGT | 1.0101 ± 5.3e-05
99 | TCTTGGTA | 0.959 ± 0.031
100 | TCTTGGTCTC | 0.995 ± 0.027
